Measured values reported in patent publication US20250327097A1, “ORGANISMS PRODUCING LESS CROTONIC ACID” (Global Bioenergies, priority 2021, published 2025).
Where a chain is given by its changes, count along the chain named. Numbers in names are those of the source.

B1: N388M-K394R-C430P-L432F-L434W-S436A (protein)
chain: MFLKSLREQINLLKRQGDLRIINRPVDSYLEAAAIIRRSTETKAPVPLMTNIKGYPGCSIVGGLAALSSNPEYPLSRVAMSLGLSTTASAQSIVQYLIDGLKKTPYLPVEIDSNSAPCKQNILRGEDASLAHFPIPQVHQHDGNRYVNTWGVFIVESPDGQWCNWSIQRVQYLNDRQMIALVFPSQHISDIWEEWVKIGKPMPYALVQGCEPIVPYIAGLPLLERNVNEAEYIGALYGKGIEVVKCETHDLRVPASSEVVIEGYFAITREGVEGPFGEFAGYIPNENSLQPILSITAISWQDDPIWPVVAEGKPVDEYHTCSGIGDAAAIQNVLLTANLPVSFVWVPLYSACHLMIVSINRHWRQTHPDLTSEQLTKKVGDVIHQTRMSIKLPRIVVLDDDVDPADTESLLWALATRIHPERKRYFYESPIFPWLACYSEEERHNRKGKRVIIDALLPENHGAISSFDYAYPDDIKQRVLMHWETDFSHD
B2: I283T-P284D-N287P-S322T-N388M-S429A-C430N-L432F-L434W-S436N-A463G-Y469D (protein)
chain: B1 chain with I283T, P284D, N287P, S322T, R394K, S429A, P430N, A436N, A463G, Y469D
B3: I283S-P284D-N287P-S322T-N388M-C430N-L432F-L434W-S436N-A463G-Y469D (protein)
chain: B1 chain with I283S, P284D, N287P, S322T, R394K, P430N, A436N, A463G, Y469D
B4: I283T-P284D-N287P-S322T-H384T-N388M-C430N-L432F-L434W-S436N-A463G-Y469D (protein)
chain: B1 chain with I283T, P284D, N287P, S322T, H384T, R394K, P430N, A436N, A463G, Y469D
B5: I283T-P284D-N287P-S288T-S322T-N388M-C430N-L432F-L434W-S436N-A463G-Y469D (protein)
chain: B1 chain with I283T, P284D, N287P, S288T, S322T, R394K, P430N, A436N, A463G, Y469D
B6: H141Y-N388M-K394R-C430P-L432F-L434W-S436N (protein)
chain: B1 chain with H141Y, A436N
B7: N388M-K394R-C430N-L432F-L434W-S436N (protein)
chain: B1 chain with P430N, A436N
B8: I283T-P284D-N285I-N287P-S322T-N388M-C430N-L432F-L434W-S436N-A463G-Y469D (protein)
chain: B1 chain with I283T, P284D, N285I, N287P, S322T, R394K, P430N, A436N, A463G, Y469D
B9: N388M-K394R-C430K-L432F-L434W-S436N (protein)
chain: B1 chain with P430K, A436N
B10: I283T-P284D-N287P-S322T-N388M-P393A-C430N-L432F-L434W-S436N-A463G-Y469D (protein)
chain: B1 chain with I283T, P284D, N287P, S322T, P393A, R394K, P430N, A436N, A463G, Y469D
B11: N388M-K394R-C430P-L432F-L434W-S436N (protein)
chain: B1 chain with A436N
B12: I283T-P284D-N285A-N287P-S322T-N388M-C430N-L432F-L434W-S436N-A463G-Y469D (protein)
chain: B1 chain with I283T, P284D, N285A, N287P, S322T, R394K, P430N, A436N, A463G, Y469D
B13: N388M-K394R-C430S-L432F-L434W-S436N (protein)
chain: B1 chain with P430S, A436N
B14: I283F-P284D-N287P-S322T-N388M-C430N-L432F-L434W-S436N-A463G-Y469D (protein)
chain: B1 chain with I283F, P284D, N287P, S322T, R394K, P430N, A436N, A463G, Y469D
B15: I283T-P284D-N285L-N287P-S322T-N388M-C430N-L432F-L434W-S436N-A463G-Y469D (protein)
chain: B1 chain with I283T, P284D, N285L, N287P, S322T, R394K, P430N, A436N, A463G, Y469D
B16: I283T-P284D-N287P-S322T-H384A-N388M-C430N-L432F-L434W-S436N-A463G-Y469D (protein)
chain: B1 chain with I283T, P284D, N287P, S322T, H384A, R394K, P430N, A436N, A463G, Y469D
B17: N388M-K394H-C430P-L432F-L434W-S436N (protein)
chain: B1 chain with R394H, A436N
B18: N388Q-C430P-L432F-L434W-S436N (protein)
chain: B1 chain with M388Q, R394K, A436N
B19: N388M-K394C-C430P-L432F-L434W-S436N (protein)
chain: B1 chain with R394C, A436N
B20: N388M-C430A-L432F-L434W-S436N (protein)
chain: B1 chain with R394K, P430A, A436N
B21: I283T-P284D-N287P-S322T-N388M-K423C-C430N-L432F-L434W-S436N-A463G-Y469D (protein)
chain: B1 chain with I283T, P284D, N287P, S322T, R394K, K423C, P430N, A436N, A463G, Y469D
B22: I283T-P284D-N287P-S322T-N388M-C430N-L432F-L434W-S436N-H444R-A463G-Y469D (protein)
chain: B1 chain with I283T, P284D, N287P, S322T, R394K, P430N, A436N, H444R, A463G, Y469D
B23: I283T-P284D-N287P-S322T-N388M-C430N-L432F-L434W-S436T-A463G-Y469D (protein)
chain: B1 chain with I283T, P284D, N287P, S322T, R394K, P430N, A436T, A463G, Y469D
B24: N388M-K394R-I395V-C430P-L432F-L434W-S436N (protein)
chain: B1 chain with I395V, A436N
B25: N388M-K394A-C430P-L432F-L434W-S436N (protein)
chain: B1 chain with R394A, A436N

Tested on: 3-methylcrotonic acid
Assay type: biochemical, Yersinia frederiksenii
Design: key: “+” representing a low increase in activity; “++++” representing a high increase in activity

Molecule | Activity relative to WT
B1 | +
B2 | ++++
B3 | ++++
B4 | ++++
B5 | ++++
B6 | +
B7 | +
B8 | ++++
B9 | +
B10 | ++++
B11 | +
B12 | ++++
B13 | +
B14 | ++++
B15 | ++++
B16 | ++++
B17 | +
B18 | +
B19 | +
B20 | +
B21 | ++++
B22 | ++++
B23 | ++++
B24 | +
B25 | +
